From PMC8437434, “Hsp40s play complementary roles in the prevention of tau amyloid formation” (eLife, 2021)

Molecular target: T1, full-length tau (2N4R), C322S (UniProt P10636-8 1-441, C322S)
T1 construct: microtubule-associated protein tau, longest splice isoform 2N4R, with C322S; 15N-labelled for NMR; also called 15N-tau; source: E. coli BL21 (DE3), purified (Ni-NTA, tag cleaved, Superdex 75); not shown: His6, N-terminal, cleaved
Test: NMR titration; 1H-15N HSQC-TROSY of 200 µM 15N-tau, tau^4R or tau^4R P301S/P301L alone and with twofold excess (400 µM) of chaperone; intensity ratios I/I0; 50 mM HEPES pH 7.0, 50 mM KCl, 1 mM DTT, 25 °C; no heparin
Details: both partners purified

T1 sequence (P10636 other isoform, or with tags, fused parts or gaps C322S | C322S | C322S C322S): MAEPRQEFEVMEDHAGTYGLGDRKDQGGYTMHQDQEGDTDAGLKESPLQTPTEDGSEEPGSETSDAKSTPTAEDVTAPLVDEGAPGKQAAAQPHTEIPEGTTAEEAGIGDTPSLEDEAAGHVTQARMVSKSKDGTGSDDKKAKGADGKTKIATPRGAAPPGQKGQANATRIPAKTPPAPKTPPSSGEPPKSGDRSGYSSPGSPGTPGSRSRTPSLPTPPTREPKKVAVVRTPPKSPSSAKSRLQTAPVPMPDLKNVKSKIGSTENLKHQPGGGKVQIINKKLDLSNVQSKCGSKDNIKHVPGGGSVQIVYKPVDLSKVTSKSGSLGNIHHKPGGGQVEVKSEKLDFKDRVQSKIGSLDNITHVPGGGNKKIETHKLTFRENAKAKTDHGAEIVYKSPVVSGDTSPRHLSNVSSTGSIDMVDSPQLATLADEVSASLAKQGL

- binding result: binds
B1: DNAJA2 (natural protein)
chain: not shown
notes: DNAJA2, class A J-domain protein; homodimer (90 kDa dimer as printed); also called class A JDP; Hsp40; source: E. coli BL21 (DE3), purified (Ni-NTA, tag cleaved, Superdex 200); not shown: His6, N-terminal, cleaved
